{"source": "the supplement of paper PMC10724198", "note": "± gives the standard deviation of the averaged measurements.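 Note: PSI is a weighted mean of sequencing reads over stability bins, variants kept only with over 10 reads, mCherry proximal and sfGFP distal, peptide attached via GGGS linker.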", "data": [{"test_system": "Saccharomyces cerevisiae", "assay": "protein stability index of tFT-peptide fusion (C-terminal peptide) (PSI (0-1 scale)); higher = more stable (slower turnover)", "settings": "genetic background: wild type; temperature: 30 C", "values": [{"sequence": "SQLGDGLLGEGV", "protein stability index": "0.697 ± 0.044"}, {"sequence": "CAGGLFAVVTPS", "protein stability index": "0.682 ± 0.043"}, {"sequence": "CSPLIISDATSR", "protein stability index": "0.713 ± 0.082"}, {"sequence": "RLCPWNLSDADL", "protein stability index": "0.71 ± 0.0091"}, {"sequence": "LKTNECIPVTEK", "protein stability index": "0.609 ± 0.029"}, {"sequence": "VEYSVVDKRLLY", "protein stability index": "0.651 ± 0.065"}, {"sequence": "FPRFACVLPAFH", "protein stability index": "0.671 ± 0.081"}, {"sequence": "PPPPPPPPPLLP", "protein stability index": "0.7031 ± 0.006"}, {"sequence": "SQTPPPAPSGHH", "protein stability index": "0.69 ± 0.099"}, {"sequence": "IPSVRATDGKIM", "protein stability index": "0.649 ± 0.024"}, {"sequence": "EFKLINLETQRC", "protein stability index": "0.706 ± 0.017"}, {"sequence": "RVQMTTHGCLIS", "protein stability index": "0.766 ± 0.15"}, {"sequence": "PFGRETCLTSVP", "protein stability index": "0.648 ± 0.03"}, {"sequence": "SGAGAMPPCSLP", "protein stability index": "0.697 ± 0.029"}, {"sequence": "RLRPPPRTLPTP", "protein stability index": "0.722 ± 0.011"}, {"sequence": "TCRGRLCVCLFC", "protein stability index": "0.505 ± 0.015"}, {"sequence": "WFGPPAPRKVSP", "protein stability index": "0.852 ± 0.042"}, {"sequence": "PASQPPTPPPRS", "protein stability index": "0.675 ± 0.11"}, {"sequence": "LCSSASFFFSVL", "protein stability index": "0.67 ± 0.059"}, {"sequence": "MRIMERWVMGGG", "protein stability index": "0.795 ± 0.16"}, {"sequence": "SPLPPARSVPPP", "protein stability index": "0.646 ± 0.067"}, {"sequence": "VLGWGSKCLVGS", "protein stability index": "0.7 ± 0.035"}, {"sequence": "PPPLLSHPFLPP", "protein stability index": "0.69 ± 0.057"}, {"sequence": "MNRKEREKKRIK", "protein stability index": "0.697 ± 0.023"}, {"sequence": "EVCPRGIAGGVV", "protein stability index": "0.678 ± 0.013"}, {"sequence": "WVGKCLCRGLCD", "protein stability index": "0.668 ± 0.0096"}, {"sequence": "GGGGGGACRPVG", "protein stability index": "0.659 ± 0.094"}, {"sequence": "PLSPNIHQRPPA", "protein stability index": "0.75 ± 0.0096"}, {"sequence": "CCLLYPAVYTTQ", "protein stability index": "0.62 ± 0.046"}, {"sequence": "GVLVESGSVESR", "protein stability index": "0.744 ± 0.12"}, {"sequence": "GWGPWGRVGRGG", "protein stability index": "0.688 ± 0.032"}, {"sequence": "PPAPSPPQPSPL", "protein stability index": "0.686 ± 0.0088"}, {"sequence": "LGVALARCLWGT", "protein stability index": "0.677 ± 0.022"}, {"sequence": "SPPSPPPPPPPS", "protein stability index": "0.691 ± 0.061"}, {"sequence": "MAEAVVLDPDMV", "protein stability index": "0.6831 ± 0.0055"}, {"sequence": "FLRVVGFVCRWG", "protein stability index": "0.679 ± 0.025"}, {"sequence": "GAGWGWGRKGSR", "protein stability index": "0.751 ± 0.089"}, {"sequence": "GSLRLASAHGLV", "protein stability index": "0.729 ± 0.02"}, {"sequence": "APPPPLPPPPSP", "protein stability index": "0.689 ± 0.092"}, {"sequence": "QPGGTHDLGGTG", "protein stability index": "0.61 ± 0.012"}, {"sequence": "ALFLDFCFPCLP", "protein stability index": "0.619 ± 0.011"}, {"sequence": "WHWDGVGTLVIW", "protein stability index": "0.605 ± 0.14"}, {"sequence": "CFPALSSRTFPS", "protein stability index": "0.7521 ± 0.0047"}, {"sequence": "PPTAPCPPPLPP", "protein stability index": "0.645 ± 0.012"}, {"sequence": "PVSSLHFPLPGF", "protein stability index": "0.677 ± 0.027"}, {"sequence": "KEKSRNIKKRRK", "protein stability index": "0.705 ± 0.079"}, {"sequence": "DGVRCCTKWTCA", "protein stability index": "0.679 ± 0.013"}, {"sequence": "CGVMLFGLGCLW", "protein stability index": "0.6321 ± 0.00042"}, {"sequence": "PRPHRLPPRPFH", "protein stability index": "0.6917 ± 0.0064"}, {"sequence": "VVALVLVGRHGG", "protein stability index": "0.597 ± 0.041"}, {"sequence": "REGRRSVWGVSW", "protein stability index": "0.685 ± 0.023"}, {"sequence": "PPRPSPPPLPPS", "protein stability index": "0.683 ± 0.051"}, {"sequence": "FSVPLMLTFPRD", "protein stability index": "0.721 ± 0.054"}, {"sequence": "CVARRPSLIGRN", "protein stability index": "0.655 ± 0.027"}, {"sequence": "SSFRRFVLVGFE", "protein stability index": "0.607 ± 0.011"}, {"sequence": "SLFPAETPPKYR", "protein stability index": "0.656 ± 0.025"}, {"sequence": "VGRVNRNERCQR", "protein stability index": "0.587 ± 0.022"}, {"sequence": "MIGWQADSINKI", "protein stability index": "0.783 ± 0.022"}, {"sequence": "PSPPPPPRTFPN", "protein stability index": "0.6756 ± 0.0064"}, {"sequence": "WAVLLQGSRDLW", "protein stability index": "0.788 ± 0.016"}, {"sequence": "PRSSTSFLPSFL", "protein stability index": "0.678 ± 0.064"}, {"sequence": "LSPRPPSPPPPP", "protein stability index": "0.688 ± 0.011"}, {"sequence": "PCGTPHVRPLAT", "protein stability index": "0.719 ± 0.025"}, {"sequence": "LTPYLYPQPSSP", "protein stability index": "0.673 ± 0.031"}, {"sequence": "GRVSAVEFWFCF", "protein stability index": "0.615 ± 0.04"}, {"sequence": "GEKEARRKKVSM", "protein stability index": "0.749 ± 0.071"}, {"sequence": "GARPTKCCSYGT", "protein stability index": "0.683 ± 0.011"}, {"sequence": "YPTTSWNPARSV", "protein stability index": "0.692 ± 0.12"}, {"sequence": "KSDTAWSHPYPS", "protein stability index": "0.6793 ± 0.00097"}, {"sequence": "LALTIVKFGDLS", "protein stability index": "0.789 ± 0.057"}, {"sequence": "EYVKFGMEHILE", "protein stability index": "0.675 ± 0.024"}, {"sequence": "EGSVGRRGHCVR", "protein stability index": "0.6959 ± 0.0055"}, {"sequence": "GPPDLSSSRVLL", "protein stability index": "0.718 ± 0.11"}, {"sequence": "RNPLDGDSGSRG", "protein stability index": "0.699 ± 0.0076"}, {"sequence": "GLSYPPLQFYYH", "protein stability index": "0.689 ± 0.012"}, {"sequence": "SHTVVFRVCTGS", "protein stability index": "0.631 ± 0.087"}, {"sequence": "SPTPRLGGPPPI", "protein stability index": "0.723 ± 0.015"}, {"sequence": "GACCRHERIREE", "protein stability index": "0.761 ± 0.084"}, {"sequence": "VRCGCDFRVSRC", "protein stability index": "0.717 ± 0.062"}, {"sequence": "KGVWLGGGCGLR", "protein stability index": "0.685 ± 0.025"}, {"sequence": "RVWYNVGEGPVR", "protein stability index": "0.699 ± 0.0085"}, {"sequence": "GTLRLLYLKTSK", "protein stability index": "0.651 ± 0.009"}, {"sequence": "QIYKISKKKKQK", "protein stability index": "0.676 ± 0.055"}, {"sequence": "LSFSDPLSLPRH", "protein stability index": "0.675 ± 0.079"}, {"sequence": "RLVFDTGPPFIN", "protein stability index": "0.657 ± 0.042"}, {"sequence": "VARLCVPSGPGH", "protein stability index": "0.721 ± 0.0096"}, {"sequence": "GWCALGVRAILY", "protein stability index": "0.651 ± 0.0097"}, {"sequence": "NALFDLAVMCLD", "protein stability index": "0.664 ± 0.028"}, {"sequence": "DPAIHPNYKVAG", "protein stability index": "0.701 ± 0.053"}, {"sequence": "FQGPPFKHVNSV", "protein stability index": "0.701 ± 0.059"}, {"sequence": "QFSRSFHSLPPT", "protein stability index": "0.683 ± 0.022"}, {"sequence": "DQSYPTPPSRID", "protein stability index": "0.721 ± 0.01"}, {"sequence": "TFDNEYKRSRKV", "protein stability index": "0.678 ± 0.033"}, {"sequence": "LYICNYFKFKKR", "protein stability index": "0.7096 ± 0.0069"}, {"sequence": "LYIRHPPSAPLP", "protein stability index": "0.808 ± 0.13"}, {"sequence": "VGDRCDECGFWA", "protein stability index": "0.699 ± 0.0043"}, {"sequence": "PPPPQPTAPPNP", "protein stability index": "0.717 ± 0.049"}, {"sequence": "PILSGILFMSPP", "protein stability index": "0.755 ± 0.0092"}, {"sequence": "LGSAAVPGLCRL", "protein stability index": "0.853 ± 0.0092"}, {"sequence": "CLPLFISPFLLG", "protein stability index": "0.677 ± 0.0068"}, {"sequence": "ISPLPPVPAGLS", "protein stability index": "0.6906 ± 0.0056"}]}]}
